The target in this assay is Gp57 (purified) (phage SECΦ27). The assay can be described thus: ITC. (ITC needs no label: the signal is the heat of the interaction.)

In the case of “CapRel^SJ46 (purified, full-length) (enzyme)”, the Kd (commonly the free concentration of one partner at which half of the binding sites on the other are occupied at equilibrium, for simple one-to-one binding) stood at 190 nM.

These data come from paper doi:10.1101/2022.05.30.493996.
